Test results from patent publication US20230031980A1 (SHANGHAI NINTH PEOPLE S HOSPITAL SHANGHAI JIAO TONG …, published 2023).
Blank lines part the entries; values can stand above or below the binder they belong to.

B3: SAGE1 (Sarcoma antigen 1), full-length protein in cells (other)
chain: MQASPLQTSQPTPPEELHAAAYVFTNDGQQMRSDEVNLVATGHQSKKKHSRKSKRHSSSKRRKSMSSWLDKQEDAAVTHSICEERINNGQPVADNVLSTAPPWPDATIAHNIREERMENGQSRTDKVLSTAPPQLVHMAAAGIPSMSTRDLHSTVTHNIREERMENGQPQPDNVLSTGPTGLINMAATPIPAMSARDLYATVTHNVCEQKMENVQPAPDNVLLTLRPRRINMTDTGISPMSTRDPYATITYNVPEEKMEKGQPQPDNILSTASTGLINVAGAGTPAISTNGLYSTVPHNVCEEKMENDQPQPNNVLSTVQPVIIYLTATGIPGMNTRDQYATITHNVCEERVVNNQPLPSNALSTVLPGLAYLATADMPAMSTRDQHATIIHNLREEKKDNSQPTPDNVLSAVTPELINLAGAGIPPMSTRDQYATVNHHVHEARMENGQRKQDNVLSNVLSGLINMAGASIPAMSSRDLYATITHSVREEKMESGKPQTDKVISNDAPQLGHMAAGGIPSMSTKDLYATVTQNVHEERMENNQPQPSYDLSTVLPGLTYLTVAGIPAMSTRDQYATVTHNVHEEKIKNGQAASDNVFSTVPPAFINMAATGVSSMSTRDQYAAVTHNIREEKINNSQPAPGNILSTAPPWLRHMAAAGISSTITRDLYVTATHSVHEEKMTNGQQAPDNSLSTVPPGCINLSGAGISCRSTRDLYATVIHDIQEEEMENDQTPPDGFLSNSDSPELINMTGHCMPPNALDSFSHDFTSLSKDELLYKPDSNEFAVGTKNYSVSAGDPPVTVMSLVETVPNTPQISPAMAKKINDDIKYQLMKEVRRFGQNYERIFILLEEVQGSMKVKRQFVEFTIKEAARFKKVVLIQQLEKALKEIDSHCHLRKVKHMRKR
notes: Endogenous protein in HuTu 80, K562, U2OS and KYSE30 cells (IP-MS); also called endogenous SAGE1; ectopically expressed SAGE1

Tests used:
[1] = molecular target: B3; assay: IP of the endogenous SAGE1 complex with anti-SAGE1 antibody (HuTu 80 and other SAGE1-expressing cancer cell lines), MS
Text: (§1) To gain mechanistic insight into SAGE1 function in tumorigenesis, we performed a proteomic analysis of the endogenous SAGE1 complex pulled down in HuTu 80 cells by an anti-SAGE1 antibody. The complex was resolved by SDS-PAGE, visualized by silver staining, and subjected to MS analysis (FIG. 6A and FIGS. 14A-14D). A number of proteins previously linked to transcriptional regulation were reproducibly identified as high-confidence SAGE1 interactors, including CBP (CRBP-binding protein), TLE (Groucho/Transducin-Like Enhancer of Split) proteins, INTS3 (a component of the Integrator complex) and INTS3-binding partners NABP (Nucleic Acid Binding Protein) and INIP (INTS3 and NABP interacting protein) (FIG. 6B). […] The interactions between SAGE1 and these proteins were further confirmed by co-immunoprecipitation (co-IP) analysis (FIG. 6C and FIG. 6D).
(§2) For IP, 1×10^7 cells were lysed in lysis buffer (20 mM Tris-HCl, 150 mM NaCl, 10% Glycerol, 0.5% TritonX-100, 1 mM EDTA, 1 mM EGTA, pH7.4) supplemented with protease inhibitor cocktail (Sigma-Aldrich, #B14001), incubated in 4° C. for 10 min and sonicated by Bioruptor Plus (Diagenode) (5-10% amplitude/power, ON 5 sec-OFF 5 sec) for 1 min. After centrifugation (14,000 rpm, 15 min, 4° C., 1 mg of supernatants were incubated with 5 μg of rabbit anti-SAGE1 polyclonal antibody (Novus Biologicals, #NBP1-84355, or Abcam, #ab233388) and rabbit anti- […]

[2] = molecular target: T1, INTS3CTD (C-terminal domain of INTS3, residues 572-978) (human, UniProt Q68E01 573-979); assay: ITC
T1 construct: also called INTS3CTD dimer
Protocol: The equilibrium dissociation constant of the SAGE1I3BD-INTS3CTD interaction was determined using a MicroCal iTC200 calorimeter (Malvern). The binding enthalpy was measured at 16° C. in 25 mM Tris-HCl pH 8.0, 150 mM NaCl and 5 mM MgCl2. Two independent experiments were performed. ITC data were subsequently analyzed and fitted using Origin 7 software (OriginLab).
All statistical tests of experimental results were performed using the GraphPad Prism 7 unless noted. The statistical significance was calculated via unpaired two-tailed Student's t test. The dissociation constants (Kd) in ITC experiments were calculated using the Origin 7 software as mean±standard error from two independent experiments with a single site-specific binding model. The statistical analysis of in vivo experiments data was performed using nonparametric Mann-Whitney test. Results were represented as mean±standard deviation unless noted and p<0.05 was considered statistically significant.

[3] = molecular target: INTS3 (integrator complex subunit 3), endogenous full-length protein (human, UniProt Q68E01 2-1043); assay: IP-MS with anti-INTS3 antibody in SAGE1-overexpressing 293T cells
Protocol: Given that SAGE1I3BD highly resembles INTS6I3BD, it is likely that they interact with INTS3CTD in a mutually exclusive manner. To test this idea, we mixed purified INTS3CTD-INTS6I3BD complex with GST-tagged SAGE1I3BD and conducted a GST-pull-down analysis.
For IP, 1×10^7 cells were lysed in lysis buffer (20 mM Tris-HCl, 150 mM NaCl, 10% Glycerol, 0.5% TritonX-100, 1 mM EDTA, 1 mM EGTA, pH7.4) supplemented with protease inhibitor cocktail (Sigma-Aldrich, #B14001), incubated in 4° C. for 10 min and sonicated by Bioruptor Plus (Diagenode) (5-10% amplitude/power, ON 5 sec-OFF 5 sec) for 1 min. After centrifugation (14,000 rpm, 15 min, 4° C., 1 mg of supernatants were incubated with 5 μg of rabbit anti-SAGE1 polyclonal antibody (Novus Biologicals, #NBP1-84355, or Abcam, #ab233388) and rabbit anti-
INTS3 polyclonal antibody (Novus Biologicals, #NBP1-19091) for 16 hours respectively. Next day, 20 μL of Protein G beads (Millipore, #LSKMAGG02) were added into each tube and incubated for 3 more hours. Then beads were harvested and washed for three times with lysis buffer and eluted by 0.2 M Glycine (pH 2.2).

[4] = molecular target: T2, CBP (CRBP-binding protein) (UniProt Q92793 2-2442, limits assumed); assay: IP of the endogenous SAGE1 complex with anti-SAGE1 antibody (HuTu 80 and other SAGE1-expressing cancer cell lines), MS
T2 construct: also called CREBBP
Text: as §1, §2

T2 sequence (Q92793 2-2442 limits assumed): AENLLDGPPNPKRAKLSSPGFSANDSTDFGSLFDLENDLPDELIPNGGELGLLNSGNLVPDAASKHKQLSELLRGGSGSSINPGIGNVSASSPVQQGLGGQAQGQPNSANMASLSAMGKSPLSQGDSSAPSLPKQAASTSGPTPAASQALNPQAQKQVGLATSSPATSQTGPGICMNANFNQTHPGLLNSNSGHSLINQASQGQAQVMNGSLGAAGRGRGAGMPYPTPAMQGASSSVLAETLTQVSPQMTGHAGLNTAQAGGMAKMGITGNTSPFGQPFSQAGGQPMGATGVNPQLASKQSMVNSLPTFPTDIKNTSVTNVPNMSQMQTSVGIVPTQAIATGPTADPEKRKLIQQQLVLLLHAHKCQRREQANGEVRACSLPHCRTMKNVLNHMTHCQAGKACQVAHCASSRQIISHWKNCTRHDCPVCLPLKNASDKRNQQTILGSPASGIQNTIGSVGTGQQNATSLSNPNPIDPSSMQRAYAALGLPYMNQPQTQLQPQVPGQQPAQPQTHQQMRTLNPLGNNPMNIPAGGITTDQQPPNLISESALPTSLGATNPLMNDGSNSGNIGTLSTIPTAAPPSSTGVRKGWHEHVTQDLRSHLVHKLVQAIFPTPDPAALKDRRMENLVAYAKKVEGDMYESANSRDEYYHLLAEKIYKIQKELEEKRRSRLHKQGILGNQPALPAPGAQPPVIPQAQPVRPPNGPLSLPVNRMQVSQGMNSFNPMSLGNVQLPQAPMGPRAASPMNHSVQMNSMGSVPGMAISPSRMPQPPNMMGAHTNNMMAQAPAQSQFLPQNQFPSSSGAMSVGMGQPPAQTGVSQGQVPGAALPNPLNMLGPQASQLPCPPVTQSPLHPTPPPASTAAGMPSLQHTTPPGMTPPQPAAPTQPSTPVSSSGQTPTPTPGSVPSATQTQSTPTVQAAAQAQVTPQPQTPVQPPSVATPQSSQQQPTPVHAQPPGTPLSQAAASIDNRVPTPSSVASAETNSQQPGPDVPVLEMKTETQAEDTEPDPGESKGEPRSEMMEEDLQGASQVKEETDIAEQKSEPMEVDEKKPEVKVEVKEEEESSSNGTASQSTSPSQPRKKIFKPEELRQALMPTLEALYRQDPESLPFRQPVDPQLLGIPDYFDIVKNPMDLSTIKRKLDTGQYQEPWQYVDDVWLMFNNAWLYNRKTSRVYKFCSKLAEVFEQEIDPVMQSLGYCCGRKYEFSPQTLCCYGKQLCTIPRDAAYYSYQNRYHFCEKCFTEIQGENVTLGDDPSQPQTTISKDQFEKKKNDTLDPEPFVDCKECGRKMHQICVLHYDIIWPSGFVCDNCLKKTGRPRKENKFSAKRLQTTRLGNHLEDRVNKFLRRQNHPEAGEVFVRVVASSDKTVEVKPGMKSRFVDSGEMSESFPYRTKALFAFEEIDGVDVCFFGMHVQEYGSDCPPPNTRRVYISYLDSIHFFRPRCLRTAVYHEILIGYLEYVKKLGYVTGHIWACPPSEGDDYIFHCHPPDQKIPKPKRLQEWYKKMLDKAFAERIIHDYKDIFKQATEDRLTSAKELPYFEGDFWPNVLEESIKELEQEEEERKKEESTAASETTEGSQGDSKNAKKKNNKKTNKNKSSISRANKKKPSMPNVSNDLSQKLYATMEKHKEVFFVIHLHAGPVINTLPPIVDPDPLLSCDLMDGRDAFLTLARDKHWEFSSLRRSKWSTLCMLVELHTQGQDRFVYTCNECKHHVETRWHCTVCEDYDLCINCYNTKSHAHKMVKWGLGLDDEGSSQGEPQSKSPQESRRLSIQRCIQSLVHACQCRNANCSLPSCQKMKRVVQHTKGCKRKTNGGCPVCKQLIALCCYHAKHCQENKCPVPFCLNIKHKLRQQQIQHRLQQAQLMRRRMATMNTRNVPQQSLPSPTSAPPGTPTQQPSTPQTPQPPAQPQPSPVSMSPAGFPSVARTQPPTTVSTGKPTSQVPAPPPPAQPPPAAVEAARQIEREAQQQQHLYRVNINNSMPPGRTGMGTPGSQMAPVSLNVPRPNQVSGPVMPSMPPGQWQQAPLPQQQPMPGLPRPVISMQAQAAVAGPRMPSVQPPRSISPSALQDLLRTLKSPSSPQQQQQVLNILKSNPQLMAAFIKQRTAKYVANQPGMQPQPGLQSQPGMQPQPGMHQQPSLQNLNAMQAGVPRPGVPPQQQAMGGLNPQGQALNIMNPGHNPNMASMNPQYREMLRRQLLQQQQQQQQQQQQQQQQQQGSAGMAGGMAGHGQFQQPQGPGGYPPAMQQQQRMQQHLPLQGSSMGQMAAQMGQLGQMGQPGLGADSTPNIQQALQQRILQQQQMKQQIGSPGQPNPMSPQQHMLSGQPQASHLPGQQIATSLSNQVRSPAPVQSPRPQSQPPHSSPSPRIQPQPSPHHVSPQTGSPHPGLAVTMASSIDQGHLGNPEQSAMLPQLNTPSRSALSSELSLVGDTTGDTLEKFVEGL
Chain of INTS3 (integrator complex subunit 3), endogenous full-length protein (Q68E01 2-1043 limits assumed, one chain of several): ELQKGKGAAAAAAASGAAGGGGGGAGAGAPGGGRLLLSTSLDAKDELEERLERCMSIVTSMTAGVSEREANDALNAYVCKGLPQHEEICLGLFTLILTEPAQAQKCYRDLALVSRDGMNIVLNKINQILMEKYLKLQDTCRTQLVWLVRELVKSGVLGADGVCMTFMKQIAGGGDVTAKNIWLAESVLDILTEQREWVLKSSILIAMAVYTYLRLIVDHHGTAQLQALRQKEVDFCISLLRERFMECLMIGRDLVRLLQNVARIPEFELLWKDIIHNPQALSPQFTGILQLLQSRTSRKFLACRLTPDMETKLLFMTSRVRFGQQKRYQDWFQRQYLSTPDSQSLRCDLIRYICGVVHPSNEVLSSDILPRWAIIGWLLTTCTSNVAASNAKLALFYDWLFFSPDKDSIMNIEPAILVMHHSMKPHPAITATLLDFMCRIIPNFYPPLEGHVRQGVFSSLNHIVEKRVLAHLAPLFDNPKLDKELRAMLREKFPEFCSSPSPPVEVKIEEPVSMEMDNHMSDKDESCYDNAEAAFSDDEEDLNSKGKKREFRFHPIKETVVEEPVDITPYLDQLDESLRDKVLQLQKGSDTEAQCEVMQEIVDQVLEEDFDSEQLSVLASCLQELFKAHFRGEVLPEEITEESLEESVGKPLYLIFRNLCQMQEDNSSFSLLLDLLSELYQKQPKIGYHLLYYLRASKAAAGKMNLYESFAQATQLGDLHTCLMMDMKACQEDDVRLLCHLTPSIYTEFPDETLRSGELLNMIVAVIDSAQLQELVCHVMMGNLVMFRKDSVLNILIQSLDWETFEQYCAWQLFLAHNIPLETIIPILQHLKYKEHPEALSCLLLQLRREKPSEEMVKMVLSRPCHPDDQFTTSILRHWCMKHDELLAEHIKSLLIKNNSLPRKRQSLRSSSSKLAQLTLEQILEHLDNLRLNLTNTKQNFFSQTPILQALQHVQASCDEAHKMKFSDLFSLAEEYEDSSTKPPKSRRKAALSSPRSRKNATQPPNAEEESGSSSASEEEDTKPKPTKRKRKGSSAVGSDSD

binding result [1]: binds
B1: INIP (INTS3 and NABP interacting protein) (other, UniProt Q9NRY2 2-104, looked up)
chain: AANSSGQGFQNKNRVAILAELDKEKRKLLMQNQSSTNHPGASIALSRPSLNKDFRDHAEQQHIAAQQKAALQHAHAHSSGYFITQDSAFGNLILPVLPRLDPE

binding result [2]: no binding
B2: mutant SAGE1I3BD (other)
chain: AMAKKINDDIKYQLAKEVRRAGANYERIFILLEEVQGSMKVKRQFVEFTIKEAAAAAKVVLIQQLEKALKEIDSHCHLRKVKHMRKR
notes: also called mutant SAGE1I3BD (alanine substitutions of six key interface residues)

Binder: B3
binding result [3]: binds
binding result [4]: binds
